Experimental data published in article doi:10.1101/2020.02.01.930206 (bioRxiv, 2020).
Blank lines part the entries; values can stand above or below the binder they belong to.

Legend:
[1] = biological target: the molecule itself; test: crystal structure
[2] = biological target: T1, human primase (PriL-PriS heterodimer) (human, UniProt P49643;P49642); test: ITC
T1 sequence 1: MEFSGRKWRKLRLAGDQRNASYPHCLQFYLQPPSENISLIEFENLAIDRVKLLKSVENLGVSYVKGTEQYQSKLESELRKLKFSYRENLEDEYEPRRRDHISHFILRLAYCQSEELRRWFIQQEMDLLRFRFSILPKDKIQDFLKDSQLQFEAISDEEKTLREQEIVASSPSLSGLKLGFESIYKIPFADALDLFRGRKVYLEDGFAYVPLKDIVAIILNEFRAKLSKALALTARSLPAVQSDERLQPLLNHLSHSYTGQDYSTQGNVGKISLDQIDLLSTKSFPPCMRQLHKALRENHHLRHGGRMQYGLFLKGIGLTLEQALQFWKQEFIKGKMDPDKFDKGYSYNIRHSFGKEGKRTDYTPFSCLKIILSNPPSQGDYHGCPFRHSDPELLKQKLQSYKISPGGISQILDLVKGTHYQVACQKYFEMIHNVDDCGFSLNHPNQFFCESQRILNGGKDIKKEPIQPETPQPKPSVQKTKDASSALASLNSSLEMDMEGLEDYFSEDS
T1 sequence 2: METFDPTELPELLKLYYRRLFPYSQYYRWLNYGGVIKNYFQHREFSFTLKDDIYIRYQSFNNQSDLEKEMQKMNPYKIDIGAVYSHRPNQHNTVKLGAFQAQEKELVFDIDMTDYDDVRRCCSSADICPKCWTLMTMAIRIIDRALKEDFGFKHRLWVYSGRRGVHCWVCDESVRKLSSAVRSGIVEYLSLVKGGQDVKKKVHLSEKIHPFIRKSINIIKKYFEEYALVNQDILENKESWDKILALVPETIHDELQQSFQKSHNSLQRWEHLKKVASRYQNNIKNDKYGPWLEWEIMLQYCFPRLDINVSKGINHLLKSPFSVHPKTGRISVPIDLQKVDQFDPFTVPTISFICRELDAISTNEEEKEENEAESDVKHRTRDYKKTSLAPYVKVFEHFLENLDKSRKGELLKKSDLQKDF

[3] = biological target: T2, full-length mouse DNA2 (mouse, UniProt Q6ZQJ5 1-1062); test: cryo-EM structure
T2 sequence: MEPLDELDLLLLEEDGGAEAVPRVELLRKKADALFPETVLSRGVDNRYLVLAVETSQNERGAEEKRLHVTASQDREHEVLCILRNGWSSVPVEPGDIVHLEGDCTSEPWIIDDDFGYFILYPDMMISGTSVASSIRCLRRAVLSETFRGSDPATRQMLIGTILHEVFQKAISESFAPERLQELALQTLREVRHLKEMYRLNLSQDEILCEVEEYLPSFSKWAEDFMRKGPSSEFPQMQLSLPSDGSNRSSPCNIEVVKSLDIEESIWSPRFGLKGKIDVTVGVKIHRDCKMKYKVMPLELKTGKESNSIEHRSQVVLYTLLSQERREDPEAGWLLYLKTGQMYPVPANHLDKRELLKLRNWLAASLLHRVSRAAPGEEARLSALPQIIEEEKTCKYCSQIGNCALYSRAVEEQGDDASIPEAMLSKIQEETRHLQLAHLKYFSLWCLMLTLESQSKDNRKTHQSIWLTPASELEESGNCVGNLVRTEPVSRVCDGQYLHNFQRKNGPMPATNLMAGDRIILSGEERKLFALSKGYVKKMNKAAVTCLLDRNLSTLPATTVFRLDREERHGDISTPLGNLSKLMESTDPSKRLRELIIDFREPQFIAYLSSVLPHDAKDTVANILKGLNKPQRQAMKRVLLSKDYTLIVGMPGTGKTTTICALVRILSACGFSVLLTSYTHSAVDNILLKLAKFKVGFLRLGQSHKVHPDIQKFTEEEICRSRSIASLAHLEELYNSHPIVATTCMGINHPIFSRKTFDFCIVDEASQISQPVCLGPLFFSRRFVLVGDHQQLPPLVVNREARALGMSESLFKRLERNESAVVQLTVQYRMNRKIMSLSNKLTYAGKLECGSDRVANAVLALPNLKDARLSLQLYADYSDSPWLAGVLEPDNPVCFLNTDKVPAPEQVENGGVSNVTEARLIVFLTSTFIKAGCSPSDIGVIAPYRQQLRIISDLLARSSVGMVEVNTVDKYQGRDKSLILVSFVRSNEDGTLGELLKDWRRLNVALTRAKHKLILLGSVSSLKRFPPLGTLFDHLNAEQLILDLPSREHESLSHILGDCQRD

B1: full-length mouse MMS19 (natural protein)
chain: MAAATGLEEAVAPMGALCGLVQDFVMGQQEGPADQVAADVKSGGYTVLQVVEALGSSLENAEPRTRARGAQLLSQVLLQCHSLLSEKEVVHLILFYENRLKDHHLVVPSVLQGLRALSMSVALPPGLAVSVLKAIFQEVHVQSLLQVDRHTVFSIITNFMRSREEELKGLGADFTFGFIQVMDGEKDPRNLLLAFRIVHDLISKDYSLGPFVEELFEVTSCYFPIDFTPPPNDPYGIQREDLILSLRAVLASTPRFAEFLLPLLIEKVDSEILSAKLDSLQTLNACCAVYGQKELKDFLPSLWASIRREVFQTASERVEAEGLAALHSLTACLSCSVLRADAEDLLGSFLSNILQDCRHHLCEPDMKLVWPSAKLLQAAAGASARACEHLTSNVLPLLLEQFHKHSQSNQRRTILEMILGFLKLQQKWSYEDRDERPLSSFKDQLCSLVFMALTDPSTQLQLVGIRTLTVLGAQPGLLSAEDLELAVGHLYRLTFLEEDSQSCRVAALEASGTLATLYPGAFSRHLLPKLAEELHKGESDVARADGPTKCSRHFRCLQALSAVSTHPSIVKETLPLLLQHLCQANKGNMVTESSEVVAVCQSLQQVAEKCQQDPESYWYFHKTAVPCLFALAVQASMPEKESSVLRKVLLEDEVLAALASVIGTATTHLSPELAAQSVTCIVPLFLDGNTSFLPENSFPDQFQPFQDGSSGQRRLVALLTAFVCSLPRNVEIPQLNRLMRELLKQSCGHSCPFSSTAATKCFAGLLNKQPPGQQLEEFLQLAVGTVEAGLASESSRDQAFTLLLWVTKALVLRYHPLSACLTTRLMGLLSDPELGCAAADGFSLLMSDCTDVLTRAGHADVRIMFRQRFFTDNVPALVQGFHAAPQDVKPNYLKGLSHVLNRLPKPVLLPELPTLLSLLLEALSCPDSVVQLSTLSCLQPLLLEAPQIMSLHVDTLVTKFLNLSSSYSMAVRIAALQCMHALTRLPTSVLLPYKSQVIRALAKPLDDKKRLVRKEAVSARGEWFLLGSPGS
binding result [1]: binds

Kd [2]: 5.4 µM
B2: human CIAO1-CIAO2B core complex (complex)
chain 1: not shown
chain 2: MVGGGGVGGGLLENANPLIYQRSGERPVTAGEEDEQVPDSIDAREIFDLIRSINDPEHPLTLEELNVVEQVRVQVSDPESTVAVAFTPTIPHCSMATLIGLSIKVKLLRSLPQRFKMDVHITPGTHASEHAVNKQLADKERVAAALENTHLLEVVNQCLSARS

Kd [2]: 0.832 µM
B3: human MMS19^710-1030-CIAO1-CIAO2B complex (complex)
chain 1: GQRRLIALLMAFVCSLPRNVEIPQLNQLMRELLELSCCHSCPFSSTAAAKCFAGLLNKHPAGQQLDEFLQLAVDKVEAGLGSGPCRSQAFTLLLWVTKALVLRYHPLSSCLTARLMGLLSDPELGPAAADGFSLLMSDCTDVLTRAGHAEVRIMFRQRFFTDNVPALVQGFHAAPQDVKPNYLKGLSHVLNRLPKPVLLPELPTLLSLLLEALSCPDCVVQLSTLSCLQPLLLEAPQVMSLHVDTLVTKFLNLSSSPSMAVRIAALQCMHALTRLPTPVLLPYKPQVIRALAKPLDDKKRLVRKEAVSARGEWFLLGSPGS
chain 2: not shown
chain 3: B2 chain 2

binding result [3]: binds
B4: human MMS19 (subunit of the purified CTC) (natural protein)
chain: MAAAAAVEAAAPMGALWGLVHDFVVGQQEGPADQVAADVKSGNYTVLQVVEALGSSLENPEPRTRARAIQLLSQVLLHCHTLLLEKEVVHLILFYENRLKDHHLVIPSVLQGLKALSLCVALPPGLAVSVLKAIFQEVHVQSLPQVDRHTVYNIITNFMRTREEELKSLGADFTFGFIQVMDGEKDPRNLLVAFRIVHDLISRDYSLGPFVEELFEVTSCYFPIDFTPPPNDPHGIQREDLILSLRAVLASTPRFAEFLLPLLIEKVDSEVLSAKLDSLQTLNACCAVYGQKELKDFLPSLWASIRREVFQTASERVEAEGLAALHSLTACLSRSVLRADAEDLLDSFLSNILQDCRHHLCEPDMKLVWPSAKLLQAAAGASARACDSVTSNVLPLLLEQFHKHSQSSQRRTILEMLLGFLKLQQKWSYEDKDQRPLNGFKDQLCSLVFMALTDPSTQLQLVGIRTLTVLGAQPDLLSYEDLELAVGHLYRLSFLKEDSQSCRVAALEASGTLAALYPVAFSSHLVPKLAEELRVGESNLTNGDEPTQCSRHLCCLQALSAVSTHPSIVKETLPLLLQHLWQVNRGNMVAQSSDVIAVCQSLRQMAEKCQQDPESCWYFHQTAIPCLLALAVQASMPEKEPSVLRKVLLEDEVLAAMVSVIGTATTHLSPELAAQSVTHIVPLFLDGNVSFLPENSFPSRFQPFQDGSSGQRRLIALLMAFVCSLPRNVEIPQLNQLMRELLELSCCHSCPFSSTAAAKCFAGLLNKHPAGQQLDEFLQLAVDKVEAGLGSGPCRSQAFTLLLWVTKALVLRYHPLSSCLTARLMGLLSDPELGPAAADGFSLLMSDCTDVLTRAGHAEVRIMFRQRFFTDNVPALVQGFHAAPQDVKPNYLKGLSHVLNRLPKPVLLPELPTLLSLLLEALSCPDCVVQLSTLSCLQPLLLEAPQVMSLHVDTLVTKFLNLSSSPSMAVRIAALQCMHALTRLPTPVLLPYKPQVIRALAKPLDDKKRLVRKEAVSARGEWFLLGSPGS
